B1: insulin-Fc fusion protein of SEQ ID NO: 52 (Fc fusion)
chain: FVNQHLCGSDLVEALALVCGERGFFYTDPTGGGPRRGIVEQCCHSICSLYQLENYCNGGGGAGGGGDCPKCPAPEMLGGPSVFIFPPKPKDTLLIARTPEVTCVVVDLDPEDPEVQISWFVDGKQMQTAKTQPREEQFNGTYRVVSVLPIGHQDWLKGKQFTCKVNNKALPSPIERTISKARGQAHQPSVYVLPPSREELSKNTVSLTCLIKDFFPPDIDVEWQSNGQQEPESKYRTTPPQLDEDGSYFLYSKLSVDKSRWQRGDTFICAVMHEALHNHYTQESLSHSPG
notes: Homodimer; HEK293, Protein A
B2: insulin-Fc fusion protein of SEQ ID NO: 118 (Fc fusion)
chain: FVNQHLCGSHLVEALALVCGERGFFYTDPAGGGPRRGIVEQCCASVCSLYQLEHYCGGGGAGGGGDCPKCPPPEMLGGPSIFIFPPKPKDTLSISRTPEVTCLVVALGPDDSDVQITWFVDNTQVYTAKTSPREEQFSSTYRVVSVLPILHQDWLKGKEFKCKVNSKSLPSPIERTISKDKGQPHEPQVYVLPPAQEELSRNKVSVTCLIEGFYPSDIAVEWEITGQPEPENNYRTTPPQLDSDGTYFLYSRLSVDRSRWQRGNTYTCSVSHEALHSHHTQKSLTQSPG
notes: homodimer
B3: insulin-Fc fusion protein of SEQ ID NO: 114 (Fc fusion)
chain: FVNQHLCGSHLVEALALVCGERGFFYTDPAGGGPRRGIVEQCCASVCSLYQLEHYCGGGGAGGGGGEGPKCPVPEIPGAPSVFIFPPKPKDTLSISRTPEVTCLVVDLGPDDSNVQITWFVDNTEMHTAKTRPREEQFNSTYRVVSVLPILHQDWLKGKEFKCKVNSKSLPSAMERTISKAKGQPHEPQVYVLPPTQEELSENKVSVTCLIKGFHPPDIAVEWEITGQPEPENNYQTTPPQLDSDGTYFLYSRLSVDRSHWQRGNTYTCSVSHEALHSHHTQKSLTQSP
notes: homodimer
B4: insulin-Fc fusion protein of SEQ ID NO: 116 (Fc fusion)
chain: FVNQHLCGSHLVEALALVCGERGFFYTDPAGGGPRRGIVEQCCASVCSLYQLEHYCGGGGAGGGGGEGPKCPVPEIPGAPSVFIFPPKPKDTLSISRTPEVTCLVVDLGPDDSNVQITWFVDNTEMHTAKTRPREEQFSSTYRVVSVLPILHQDWLKGKEFKCKVNSKSLPSAMERTISKAKGQPHEPQVYVLPPTQEELSENKVSVTCLIKGFHPPDIAVEWEITGQPEPENNYQTTPPQLDSDGTYFLYSRLSVDRSHWQRGNTYTCSVSHEALHSHHTQKSLTQSPG
notes: homodimer
B5: insulin-Fc fusion protein of SEQ ID NO: 56 (Fc fusion)
chain: FVNQHLCGSDLVEALALVCGERGFFYTDPTGGGPRRGIVEQCCHSICSLYQLENYCNGGGGAGGGGCISPCPVPESLGGPSVFIFPPKPKDILRITRTPEITCVVLDLGREDPEVQISWFVDGKEVHTAKTQPREQQFNSTYRVVSVLPIEHQDWLTGKEFKCRVNHIGLPSPIERTISKARGQAHQPSVYVLPPSPKELSSSDTVTLTCLIKDFFPPEIDVEWQSNGQPEPESKYHTTAPQLDEDGSYFLYSKLSVDKSRWQQGDTFTCAVMHEALQNHYTDLSLSHSPG
notes: only 12% homodimer (aggregated)
B6: insulin-Fc fusion protein of SEQ ID NO: 64 (Fc fusion)
chain: FVNQHLCGSDLVEALALVCGERGFFYTDPTGGGPRRGIVEQCCHSICSLYQLENYCNGGGGAGGGGDCPKCPAPEMLGGPSVFIFPPKPKDTLLIARTPEVTCVVVDLDPEDPEVQISWFVDGKQMQTAKTQPREEQFKGTYRVVSVLPIGHQDWLKGKQFTCKVNNKALPSPIERTISKARGQAHQPSVYVLPPSREELSKNTVSLTCLIKDFFPPDIDVEWQSNGQQEPESKYRTTPPQLDEDGSYFLYSKLSVDKSRWQRGDTFICAVMHEALHNHYTQESLSHSPG
notes: homodimer; also called cNg-K; cNg-NB139-K
B7: insulin-Fc fusion protein of SEQ ID NO: 36 (Fc fusion)
chain: FVNQHLCGSHLVEALALVCGERGFHYGGGGGGSGGGGGIVEQCCTSTCSLDQLENYCGGGGGQGGGGQGGGGQGGGGGDCPKCPAPEMLGGPSVFIFPPKPKDTLLIARTPEVTCVVVDLDPEDPEVQISWFVDGKQMQTAKTQPREEQFSGTYRVVSVLPIGHQDWLKGKQFTCKVNNKALPSPIERTISKARGQAHQPSVYVLPPSREELSKNTVSLTCLIKDFFPPDIDVEWQSNGQQEPESKYRTTPPQLDEDGSYFLYSKLSVDKSRWQRGDTFICAVMHEALHNHYTQESLSHSPG
notes: homodimer; also called cNg-S and B16A
B8: insulin-Fc fusion protein of SEQ ID NO: 96 (Fc fusion)
chain: FVNQHLCGSHLVEALELVCGERGFHYGGGGGGSGGGGGIVEQCCTSTCSLDQLENYCGGGGGQGGGGQGGGGQGGGGGRCTDTPPCPVPEPLGGPSVLIFPPKPKDILRITRTPEVTCVVLDLGREDPEVQISWFVDGKEVHTAKTQSREQQFNGTYRVVSVLPIEHQDWLTGKEFKCRVNHIDLPSPIERTISKARGRAHKPSVYVLPPSPKELSSSDTVSITCLIKDFYPPDIDVEWQSNGQQEPERKHRMTPPQLDEDGSYFLYSKLSVDKSRWQQGDPFTCAVMHETLQNHYTDLSLSHSPG
notes: purified on Protein A or Protein G
B9: insulin-Fc fusion protein of SEQ ID NO: 104 (Fc fusion)
chain: FVNQHLCGSHLVEALELVCGERGFHYGGGGGGSGGGGGIVEQCCTSTCSLDQLENYCGGGGGQGGGGQGGGGQGGGGGDCPKCPAPEMLGGPSVFIFPPKPKDTLLIARTPEVTCVVVDLDPEDPEVQISWFVDGKQMQTAKTQPREEQFSGTYRVVSVLPIGHQDWLKGKQFTCKVNNKALPSPIERTISKARGQAHQPSVYVLPPSREELSKNTVSLTCLIKDFFPPDIDVEWQSNGQQEPESKYRTTPPQLDEDGSYFLYSKLSVDKSRWQRGDTFICAVMHEALHNHYTQESLSHSPG
notes: 71% homodimer; also called cNg-NB151-S
B10: insulin-Fc fusion protein of SEQ ID NO: 102 (Fc fusion)
chain: FVNQHLCGSHLVEALELVCGERGFHYGGGGGGSGGGGGIVEQCCTSTCSLDQLENYCGGGGGQGGGGQGGGGQGGGGGDCPKCPAPEMLGGPSVFIFPPKPKDTLLIARTPEVTCVVVALDPEDPEVQISWFVDGKQMQTAKTQPREEQFSGTYRVVSVLPIGHQDWLKGKQFTCKVNNKALPSPIERTISKARGQAHQPSVYVLPPSREELSKNTVSLTCLIKDFFPPDIDVEWQSNGQQEPESKYRTTPPQLDEDGSYFLYSKLSVDKSRWQRGDTFICAVMHEALHNHYTQESLSHSPG
notes: 73% homodimer; also called cNg-NB151-S, NB119-A

Molecular target: T1, human insulin receptor (human, UniProt P06213 28-1382)
T1 construct: whole, on cells; Endogenous receptor on IM-9 cells; also called IR
Assay: competition with biotinylated RHI on IM-9 cells, flow cytometry, 4 C
Method: 40 μL of an IM-9 cell suspension (8×10⁶ cells/mL) was then added to each well by multichannel pipette, mixed again gently and incubated on ice for 30 min to allow competitive binding on the insulin receptor on IM-9 cells. Cells were then washed twice with 275 μL of ice-cold FACS wash buffer (HBSS/2 mM EDTA/0.1% Na-azide+0.5% horse serum) by centrifuging the V-bottom plate at 3000 rpm for 3 min and aspirating the supernatant. Cells were then resuspended in 40 μL of FACS staining medium containing 1:100 diluted Streptavidin-PE (Life Technologies) for 20 min on ice. Cells were then washed once with 275 μL of ice-cold FACS buffer and finally fixed with 3% paraformaldehyde for 10 min at room temp. Cells were then washed once with 275 μL of ice-cold FACS buffer and resuspended in 250 μl of FACS buffer for analysis.
The V-bottom plates containing cells were then analyzed on a Guava 8-HT flow cytometer (Millipore). Biotinylated-RHI binding to insulin receptor was quantitated by the median fluorescence intensity (MFI) of the cells on the FACS FL-2 channel for each concentration of the test compound. Control wells were labeled only with biotinylated-RHI and were used to calculate the percent (%) inhibition resulting from each test compound concentration. The % inhibition by test compounds of biotinylated-RHI binding on IM-9 cells was plotted against log concentrations of the test compound, and the resulting IC50 values were calculated using GraphPad Prism (GraphPad Software, La Jolla, CA) for the test compounds. Lower IC50 values of the test compound therefore indicate greater levels of biotinylated-RHI inhibition at lower concentrations indicating stronger binding of the insulin-Fc fusion protein to the insulin receptor. A control compound, such as unlabeled recombinant human insulin (RHI) was also used as an internal standard to generate an RHI IC50 against which a given compound IC50 could be ratioed (IC50(compound)/IC50(RHI)). Lower IC50 ratios have more similar binding to RHI (stronger binding to insulin receptor), while higher IC50 ratios have weaker binding to the insulin receptor relative to RHI.

T1 sequence (P06213 28-1382): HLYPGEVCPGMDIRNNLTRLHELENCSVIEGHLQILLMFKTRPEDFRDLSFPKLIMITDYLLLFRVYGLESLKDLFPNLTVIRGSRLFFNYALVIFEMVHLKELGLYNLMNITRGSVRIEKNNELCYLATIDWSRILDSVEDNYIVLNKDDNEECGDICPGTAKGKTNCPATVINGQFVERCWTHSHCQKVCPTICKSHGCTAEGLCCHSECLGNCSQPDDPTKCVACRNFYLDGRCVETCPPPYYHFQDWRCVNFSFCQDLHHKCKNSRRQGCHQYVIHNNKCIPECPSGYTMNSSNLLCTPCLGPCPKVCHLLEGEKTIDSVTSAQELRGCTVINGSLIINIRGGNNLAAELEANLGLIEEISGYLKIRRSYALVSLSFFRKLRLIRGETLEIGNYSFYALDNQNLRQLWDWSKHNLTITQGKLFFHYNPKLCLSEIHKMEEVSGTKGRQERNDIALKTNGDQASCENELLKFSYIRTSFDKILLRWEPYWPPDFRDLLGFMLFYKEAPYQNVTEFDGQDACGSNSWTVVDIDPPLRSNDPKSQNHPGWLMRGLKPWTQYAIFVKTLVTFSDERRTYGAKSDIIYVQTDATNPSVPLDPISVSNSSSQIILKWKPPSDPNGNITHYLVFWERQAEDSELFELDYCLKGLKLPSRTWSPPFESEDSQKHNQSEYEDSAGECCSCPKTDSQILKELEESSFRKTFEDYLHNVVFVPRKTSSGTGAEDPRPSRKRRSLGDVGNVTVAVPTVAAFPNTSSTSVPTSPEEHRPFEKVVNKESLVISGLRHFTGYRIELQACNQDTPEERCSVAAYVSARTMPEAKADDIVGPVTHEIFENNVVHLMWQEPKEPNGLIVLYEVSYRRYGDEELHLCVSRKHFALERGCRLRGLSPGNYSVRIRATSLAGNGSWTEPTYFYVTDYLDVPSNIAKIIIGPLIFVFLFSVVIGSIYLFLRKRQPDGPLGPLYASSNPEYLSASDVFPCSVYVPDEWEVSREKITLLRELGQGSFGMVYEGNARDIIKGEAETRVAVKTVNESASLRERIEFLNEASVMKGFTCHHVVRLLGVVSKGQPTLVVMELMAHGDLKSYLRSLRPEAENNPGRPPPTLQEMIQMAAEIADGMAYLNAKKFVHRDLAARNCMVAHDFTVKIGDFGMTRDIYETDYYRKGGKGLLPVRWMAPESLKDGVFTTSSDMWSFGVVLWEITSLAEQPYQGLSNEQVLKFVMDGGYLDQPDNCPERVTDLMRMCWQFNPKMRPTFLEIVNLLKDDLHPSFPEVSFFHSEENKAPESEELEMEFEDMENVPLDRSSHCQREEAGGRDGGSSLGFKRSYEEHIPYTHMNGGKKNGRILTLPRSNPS

Which IC50 does the source give for B1 here?
The IC50 was 28 nM.

B2 was tested. Which IC50 did it give?
The IC50 was > 5000 nM.

For B3, which IC50 is on record?
The IC50 was 3480 nM.

Which IC50 does the source give for B4 here?
Its IC50 is 707 nM.

Which IC50 does the source give for B5 here?
The IC50 was > 5000 nM.

Molecular target: T2, biotinylated recombinant human Fc(gamma) receptor I (human, UniProt P12314 16-288, biotinylated (site not stated))
T2 construct: Bought reagent, used as surrogate for canine/feline Fc(gamma)RI; also called rhFc(gamma) receptor I; Fc(gamma)RI
Assay: ELISA, fusion protein coated, biotinylated rhFc(gamma)RI in solution, pH 7.4
Method: (§1) The binding of insulin-Fc fusion proteins to the Fc(gamma) receptor I at pH 7.4 was conducted using an ELISA assay as follows. Since neither canine nor feline Fc(gamma) receptor I was not commercially available, human Fc(gamma) receptor I (i.e., rhFc(gamma) receptor I) was used as a surrogate mammalian receptor. Insulin-Fc compounds were diluted to 10 μg/mL in sodium bicarbonate buffer at pH 9.6 and coated on Maxisorp (Nunc) microtiter plates overnight at 4° C., after which the microplate strips were washed 5 times with PBST (PBS/0.05% Tween-20) buffer and blocked with Superblock blocking reagent (ThermoFisher). Serial dilutions of biotinylated rhFc(gamma) receptor I (recombinant human Fc(gamma)R-I; R&D Systems) were prepared in PBST/10% Superblock buffer from 6000 ng/mL to 8.2 ng/mL and loaded at 100 μL/well onto the microplate strips coated with insulin-Fc fusion protein. The microtiter plate was incubated for 1 hour at room temperature after which the microplate strips were washed 5 times with PBST and then loaded with 100 μL/well of streptavidin-HRP diluted 1:10000 in PBST/10% Superblock buffer. After incubating for 45 min, the microplate strips were washed again 5 times with PBST. TMB was added to reveal the bound Fc(gamma) receptor I proteins and stopped with ELISA stop reagent (Boston Bioproducts). The plate was read in an ELISA plate reader at 450 nm, and the OD values (proportional to the binding of rhFc(gamma) receptor I to insulin-Fc protein) were plotted against log concentrations of rhFc(gamma) receptor I added to each well to generate binding curves using GraphPad Prism software.
Low Fc(gamma) receptor binding is most likely to correlate with minimum immunogenicity.

T2 sequence (P12314 16-288 limits assumed): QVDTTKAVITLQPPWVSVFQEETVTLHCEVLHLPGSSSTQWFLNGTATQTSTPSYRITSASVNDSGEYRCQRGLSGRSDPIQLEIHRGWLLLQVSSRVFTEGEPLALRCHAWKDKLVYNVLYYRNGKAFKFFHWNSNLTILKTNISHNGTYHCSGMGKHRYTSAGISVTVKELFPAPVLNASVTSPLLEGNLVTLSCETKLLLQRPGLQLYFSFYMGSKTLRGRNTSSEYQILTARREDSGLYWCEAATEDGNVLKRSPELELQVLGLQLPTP

With B1 as the binder, how does the “OD450 nm Minus Assay Background” value read?
The value was 0.323 OD450.

And the “Ratio to SEQ ID NO: 52” value?
The value was 1 ratio.

How did the “Ratio to SEQ ID NO: 52” value turn out when B6 was run?
Its value is 0.2 ratio.

Molecular target: T2, biotinylated recombinant human …
Assay: ELISA, fusion protein coated, biotinylated rhFc(gamma)RI at 3000 ng/mL, pH 7.4
Method: as §1
Finally, select compounds were tested for their likelihood to interact with the immune system by measuring their Fc(gamma) receptor binding activity according to the procedure of Example 8. Table 19 compares the Fc(gamma) receptor I binding of these insulin-Fc fusion proteins with the Fc(gamma) receptor binding of the insulin-Fc fusion protein of SEQ ID NO: 52.

With B1 as the binder, how does the “OD450 nm Minus Assay Background” value read?
Its value is 0.371 OD450.

And the “OD450 nm at a Fc(gamma)RI concentration of 3000 (ng/mL)” value (from here on “OD450 nm … (ng/mL)”)?
Its value is 0.428 OD450.

What about the “Ratio to SEQ ID NO: 52” value of the same binder?
The value was 1 ratio.

Which results are given for B7?
OD450 nm at a Fc(gamma)RI concentration of 3000 (ng/mL): 0.177 OD450; Ratio to SEQ ID NO: 52: 0.32 ratio

For B8, which “OD450 nm … (ng/mL)” value is on record?
The value was 0.253 OD450.

What about the “Ratio to SEQ ID NO: 52” value of the same binder?
Its value is 0.53 ratio.

With B9 as the binder, how does the “OD450 nm … (ng/mL)” value read?
The value was 0.175 OD450.

What about the “Ratio to SEQ ID NO: 52” value of the same binder?
The value was 0.32 ratio.

How did the “OD450 nm … (ng/mL)” value turn out when B10 was run?
Its value is 0.166 OD450.

What about the “Ratio to SEQ ID NO: 52” value of the same binder?
The value was 0.29 ratio.

Source: US20240101635A1 (AKSTON BIOSCIENCES, published 2024)
